Assay results as given in PMC10330821.

Target: native bovine chromogranin B (bCHGB) (bovine)
Assay: SEC; bCHGB in detergents, re-extracted from vesicles and fractionated by gel filtration; elution position compared with recombinant mCHGB

stoichiometry N: 2
Substance: native bovine chromogranin B (bCHGB) (natural protein)
